In US20190048038A1, “METHOD FOR GENERATING CELL-PENETRATING STAPLED PEPTIDES THAT LACK NONSPECIFIC MEMBRANE-LYTIC PROPERTIES FOR THERAPEUTIC TARGETING” (Dana-Farber Cancer Institute, Inc., priority 2016, published 2019):
Positions of bridges follow the written chain, without caps; N, C: chain ends. Non-standard residues stand in square brackets, D forms with d. Residues, ends and D or L forms follow the SMILES beside them. No end group written: not given here. *: point of attachment. FITC = O=C1OC2(c3ccc(O)cc3Oc3cc(O)ccc32)c2ccc(NC(=S)*)cc21; R8 = C=CCCCCCC[C@@](C)(N)C(=O)O; Cba = N[C@@H](CC1CCC1)C(=O)O; S5 = C=CCCC[C@](C)(N)C(=O)O; βAla = NCCC(=O)O

Legend:
[1] = system: BCL-XL-reconstituted p185^+Arf^−/−Mcl-1^del B-ALL cells; assay: LDH release assay (membrane lysis) in B-ALL cells; conditions: 10 μM peptide, 30 min, serum-free
Protocol: Data are normalized based on the response to treatment with 1% Triton X-100 (100% release) and media alone (0% LDH release). Error bars are mean±s.d. for experiments performed in technical duplicate and repeated twice.
B-ALL and Jurkat T cells were plated in 96-well format (2×10^4 cells per well) in serum-free RPMI. […] The plate was centrifuged at 1500 rpm for 5 min at 4° C., and 80 μL of cell culture media was transferred to a clear plate (Corning), incubated with 80 μL of LDH reagent (Roche) for 15 min while shaking, and absorbance measured at 490 nm on a microplate reader (SpectraMax M5 Microplate Reader, Molecular Devices).
In order to identify compounds whose cytotoxicity correlates with the capacity for cellular uptake and intracellular target engagement, it is important to rule out nonspecific cytotoxicity due to potential plasma membrane lysis.

[2] = target: T1, BCL-XLΔC (Homo sapiens, UniProt Q07817); assay: fluorescence polarization
Target sequence in this assay (Q07817 1-212, stated change not applied): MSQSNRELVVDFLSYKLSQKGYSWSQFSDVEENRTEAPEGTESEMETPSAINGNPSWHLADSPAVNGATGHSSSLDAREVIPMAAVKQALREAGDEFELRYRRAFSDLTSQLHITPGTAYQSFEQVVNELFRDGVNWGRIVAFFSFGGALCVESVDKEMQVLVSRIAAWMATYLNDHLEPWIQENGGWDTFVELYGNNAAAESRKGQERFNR

[3] = system: cells; conditions: 20 μM peptide
Text: Data are normalized based on the response to treatment with 1% Triton X-100 (100% release) and media alone (0% LDH release). Error bars are mean±s.d.

[4] = system: SAOS-2 cells; assay: Epifluorescence (IXM) microscopy cellular penetrance of ATSP-7041; assay type: cell-based
Text: Error bars represent mean±s.d.
Images were acquired by IXM.

[5] = Percent α-helicity by circular dichroism; assay type: physicochemical; conditions: 222 nm
Protocol: FIG. 19 is a table showing the sequence composition and biophysical parameters of a BIM BH3 staple scanning library. Hydrophobicity was calculated using techniques generally known in the art^39, with “X” assigned the hydrophobicity value of Leu. Retention time in minutes reflects the peptide elution time from an HPLC C18 column (Agilent, 1200) run for 20 minutes using a 5-95% water: acetonitrile gradient (10 mM ammonium carbonate). Percent α-helicity of stapled peptides (50 μM, 10% acetonitrile in water) was derived from circular dichroism spectra using the mdeg value at 222 nm, as described^34. Net charge was calculated by summing the positive and negative charges of Arg and Asp/Glu, respectively. The isoelectric point (pI) calculation employed the EMBOSS values for pKa.
The alpha-helicity of a peptide of interest can be determined by any method known in the art. In some cases, circular dichroism or nuclear magnetic resonance spectroscopy (NMR) may be employed. Peptides are dissolved in an aqueous solution (e.g., 5 mM potassium phosphate solution at pH 7, or distilled H2O, to concentrations of 25-50 μM). […] The α-helical content of each peptide is calculated by dividing the mean residue ellipticity by the reported value for a model helical decapeptide (Yang et al., Methods Enzymol. 130:208 (1986)). […]

[6] = system: mouse embryonic fibroblasts (MEFs); assay: ImageXpress microscopy cellular uptake of FITC-peptides (TIFI); assay type: cell-based; conditions: MEFs 2×10^4 cells/well, 500 nM FITC-peptide, 4 h, 0% FBS, per cell basis
Text: The cellular penetrance of a peptide of interest can be assessed by any method known in the art. For example, ImageXpress microscopy analysis may be employed as described in Example 1. The total internalized FITC intensity (TIFI) can be used as a way to determine cellular uptake of a hydrocarbon-stapled and/or stitched peptide by a cell (e.g., any cell described herein). Methods of determining TIFI are described in detail in Examples 2 and 3 of the instant specification. Briefly, a custom module (CM) was created to develop a rigorous quantitation platform for measuring cellular uptake of hydrocarbon-stapled and/or stitched peptides derivatized with a FITC fluorophore at the N-terminus. The CM was developed based on (1) defining the parameters of cellular uptake (e.g., excluding extracellular aggregates and auto-fluorescent debris), (2) defining a pixel boundary to avoid quantitation of extracellular, membrane-adherent peptides, (3) excluding out-of-focus fluorescence from the FITC signal outliers. Once the CM parameters are set, images can be acquired at 20× and 40× magnification for per cell basis fluorescence, and four distinct central locations of the cellular field are visualized. Next signal-to-noise ratios are maximized to ensure optimal sensitivity and specificity of internal FITC-peptide signal. […]

[7] = target: T1, BCL-XLΔC; assay: IC50 (nM); parameters: BCL-XL ΔC was expressed as a glutathione-S-transferase (GST) fusion protein; GST (N, cleaved yes); made in house; host or cells: Escherichia coli BL21 (DE3), pGEX2T vector
Text: Table printed on a drawing sheet, FIG. 4B
Head of the field: IC50 (nM)
First copying reader's note: The table is the legend of a binding plot (mP vs [BCL-XL ΔC], M); plot marker symbols before each sequence are left out, and some mutated residues are printed inside a box.

## CC[C@H](C)[C@H](NC(=O)CCNC(=S)Nc1ccc2c(c1)C(=O)OC21c2ccc(O)cc2Oc2cc(O)ccc21)C(=O)N[C@@H](Cc1c[nH]c2ccccc12)C(=O)N[C@H](C(=O)N[C@@H](C)C(=O)N[C@@H](CCC(N)=O)C(=O)N[C@@H](CCC(=O)O)C(=O)N[C@@H](CC(C)C)C(=O)N[C@@H](CCCNC(=N)N)C(=O)N[C@@]1(C)CCCC=CCCC[C@@](C)(C(=O)N[C@@H](Cc2ccccc2)C(=O)N[C@@H](CC(N)=O)C(=O)N[C@@H](C)C(=O)N[C@@H](Cc2ccc(O)cc2)C(=O)N[C@@H](Cc2ccc(O)cc2)C(=O)N[C@H](C(=O)N[C@@H](CCCNC(=N)N)C(=O)N[C@@H](CCCNC(=N)N)C(N)=O)[C@@H](C)O)NC(=O)[C@H](CC(=O)O)NC(=O)CNC(=O)[C@H]([C@@H](C)CC)NC1=O)[C@@H](C)CC [A164T, IWIAQELRXIGDXFNAYYTRR]
[1]
  LDH release, membrane lytic activity: promote lysis

## IWIAQELRXIGDXFNAYYIRR
[2]
  IC50: 0.0457 µM

## IWIAQLLRXIGDXFNAYYARR
[2]
  IC50: > 1 µM

## CC[C@H](C)[C@H](NC(=O)CCNC(=S)Nc1ccc2c(c1)C(=O)OC21c2ccc(O)cc2Oc2cc(O)ccc21)C(=O)N[C@@H](CCCNC(=N)N)C(=O)N[C@H](C(=O)N[C@@H](C)C(=O)N[C@@H](CCC(N)=O)C(=O)N[C@@H](CCC(=O)O)C(=O)N[C@@H](CC(C)C)C(=O)N[C@@H](CCCNC(=N)N)C(=O)N[C@@]1(C)CCCC=CCCC[C@@](C)(C(=O)N[C@@H](Cc2ccccc2)C(=O)N[C@@H](CC(N)=O)C(=O)N[C@@H](C)C(=O)N[C@@H](Cc2ccc(O)cc2)C(=O)N[C@@H](Cc2ccc(O)cc2)C(=O)N[C@@H](C)C(=O)N[C@@H](CCCNC(=N)N)C(=O)N[C@@H](CCCNC(=N)N)C(N)=O)NC(=O)[C@H](CC(=O)O)NC(=O)CNC(=O)[C@H]([C@@H](C)CC)NC1=O)[C@@H](C)CC [W147R, IRIAQELRXIGDXFNAYYARR]
[1]
  LDH release, membrane lytic activity: promote lysis

## LTFZEYWANCbXSAA (LTF[R8]EYWAN[Cba][S5]SAA; staple 4-11) [ATSP-7041, i, i+7 stapled peptide; X S-pentenyl alanine, Z R-octenyl alanine, Cb cyclobutylalanine]
[3]
  nonspecific membrane lytic properties (LDH release): lacks nonspecific membrane lytic properties
[4]
  cellular penetrance (TIFI value): effective cellular penetrance
[5]
  α-helicity: 70%

## CC[C@H](C)[C@H](NC(=O)CCNC(=S)Nc1ccc2c(c1)C(=O)OC21c2ccc(O)cc2Oc2cc(O)ccc21)C(=O)N[C@@H](Cc1c[nH]c2ccccc12)C(=O)N[C@H](C(=O)N[C@@H](C)C(=O)N[C@@H](CCC(N)=O)C(=O)N[C@@H](CCC(=O)O)C(=O)N[C@@H](CC(C)C)C(=O)N[C@@H](CCCNC(=N)N)C(=O)N[C@@]1(C)CCCC=CCCC[C@@](C)(C(=O)N[C@@H](Cc2ccccc2)C(=O)N[C@@H](CC(N)=O)C(=O)N[C@@H](CCC(=O)O)C(=O)N[C@@H](Cc2ccc(O)cc2)C(=O)N[C@@H](Cc2ccc(O)cc2)C(=O)N[C@@H](C)C(=O)N[C@@H](CCCNC(=N)N)C(=O)N[C@@H](CCCNC(=N)N)C(N)=O)NC(=O)[C@H](CC(=O)O)NC(=O)CNC(=O)[C@H]([C@@H](C)CC)NC1=O)[C@@H](C)CC [A161E, IWIAQELRXIGDXFNEYYARR]
[6]
  total internalized FITC intensity (TIFI), cellular uptake: retention of high level TIFI

## IWIAQELRXIGDXFNAIYARR
[2]
  IC50: 0.0594 µM

## CC[C@H](C)[C@H](NC(=O)CCNC(=S)Nc1ccc2c(c1)C(=O)OC21c2ccc(O)cc2Oc2cc(O)ccc21)C(=O)N[C@@H](Cc1c[nH]c2ccccc12)C(=O)N[C@H](C(=O)N[C@@H](C)C(=O)N[C@@H](CCC(N)=O)C(=O)N[C@@H](CCC(=O)O)C(=O)N[C@@H](CC(C)C)C(=O)N[C@@H](CCCNC(=N)N)C(=O)N[C@@]1(C)CCCC=CCCC[C@@](C)(C(=O)N[C@@H](Cc2ccccc2)C(=O)N[C@@H](CC(N)=O)C(=O)N[C@@H](C)C(=O)N[C@@H](Cc2ccc(O)cc2)C(=O)N[C@@H](Cc2ccc(O)cc2)C(=O)N[C@@H](C)C(=O)N[C@@H](CCCNC(=N)N)C(=O)N[C@@H](CCCNC(=N)N)C(N)=O)NC(=O)[C@H](CC(C)C)NC(=O)CNC(=O)[C@H]([C@@H](C)CC)NC1=O)[C@@H](C)CC [IWIAQELRXIGLXFNAYYARR] ({FITC-βAla}-IWIAQELR[S5]IGL[S5]FNAYYARR-NH2; staple 9-13)
[7]
  IC50: > 1 µM

## IWIALELRXIGDXFNAYYARR
[2]
  IC50: > 1 µM

## BIM SAHBA1
[2]
  IC50: 0.0138 µM
